Measured values from the supplement of paper PMC10567573.

B1: ATL3 (parent)
chain: YGLQGGMAFLDKRLQVKEHQHEEI
B2: DLC1 (parent)
chain: AEVVKIRDSFSNQNTETKDTKSR

Variants of: B1
Experiment: protein stability index of a GFP-peptide fusion (GPS, HEK-293T) (PSI 1-6); higher = more stable
Conditions: c terminus: a fixed tail appended
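Further: lentivirally expressed fusions sorted by FACS into six bins by GFP to DsRed ratio, PSI derived from sequencing read proportions per bin multiplied by bin number.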

Protein stability index of substitutions, site by site:
R13: T 2.28 | A 2.47 | P 1.93 | W 1.73 | Y 1.34 | I 1.66 | L 2.3 | G 1.28 | S 1.98 | F 2.73 | M 2.04 | C 2.56 | V 2.14 | E 1.59 | H 2.26 | Q 1.86 | K 2.84 | D 1.52 | N 2.87
H19: W 3.59 | M 2.82 | Y 2.76 | I 2.95 | V 3.03 | L 2.36 | P 2.5 | Q 2.48 | C 2.31 | A 2.74 | E 2.81 | S 2.01 | D 3.38 | N 2.6 | K 2.25 | G 2.65 | T 2.54
K12: V 2.62 | Q 1.81 | T 1.79 | P 1.88 | I 3.88 | G 2.22 | D 1.75 | L 3.83 | E 1.99 | C 1.49 | M 2.89 | N 2.91 | F 3.37 | Y 2.73 | A 1.93 | W 2.44 | S 2.26 | H 2.03
Q20: R 1.57 | Y 2.58 | I 2.56 | A 2.87 | S 2.12 | H 3.12 | P 2 | F 3.31 | T 2.2 | K 1.85 | E 2.5 | V 2.99 | M 2.35 | W 1.55 | C 3.54 | D 3.09 | N 2.86 | G 3.57
Q15: N 1.79 | Y 2.44 | G 2.69 | M 3.24 | W 2.37 | E 1.76 | S 3.92 | C 3.47 | D 2.4 | R 2.28 | P 2.47 | T 2.04 | V 2.9 | K 2.54 | A 3.14 | F 2.65 | H 2.75 | L 2.21 | I 2.64
E22: P 2.96 | A 2.54 | H 2.91 | I 2.94 | G 2.8 | M 2.24 | D 2.48 | C 2.48 | W 2.76 | V 1.45 | Y 2.6 | K 1.86 | N 3.19 | F 2.03 | R 2.16 | S 3.33 | Q 1.75 | T 1.9 | L 2.68
V16: F 2.5 | Q 3.13 | M 2.42 | P 1.22 | E 2.79 | D 2.08 | K 2.84 | C 2.78 | A 2.7 | H 1.91 | R 2.02 | W 2.33 | L 2.81 | N 1.6 | S 1.46 | T 2.3 | Y 3.04 | G 1.77
K17: N 3.3 | I 2.51 | A 1.42 | W 2.2 | P 2.82 | H 2.63 | Q 1.55 | F 2.52 | V 2.42 | E 2.56 | M 2.55 | R 2.99 | T 2.7 | C 2.17 | S 1.8 | Y 3.11 | D 1.54
E23: C 3.04 | R 2.99 | I 2.66 | Q 2.9 | G 3.58 | L 2.25 | S 2.41 | P 3.04 | A 1.94 | V 2.17 | D 3.04 | T 2.74 | W 2.57 | Y 2.76 | F 2.43 | N 2.85 | K 2.43 | H 2.38 | M 3.12
I24: F 4.03 | V 2.5 | T 1.79 | M 1.71 | L 2.51 | K 2.35 | P 2.81 | A 2.58 | H 3.42 | G 3.23 | D 2.33 | C 3.25 | Q 2.14 | Y 4.04 | E 2.29 | S 2.56 | R 2.26 | N 2.89
H21: S 3.88 | T 3.49 | P 2.33 | F 1.6 | M 2.2 | E 3.27 | I 3.39 | Q 2.44 | K 3.21 | R 3.51 | A 2.51 | Y 2.55 | D 2.11 | C 2.48 | V 2.1 | L 2.8
D11: F 1.78 | K 2.27 | A 1.65 | W 2.01 | G 2.76 | I 1.85 | Y 2.74 | N 1.81 | S 1.91 | E 2.9 | Q 1.72 | V 2.84 | H 1.61 | R 1.95 | P 2.33 | L 2.37 | T 2.16 | C 2.94 | M 2.22
L14: Y 3.4 | T 3.17 | R 2.48 | W 2.82 | Q 1.52 | S 2.57 | C 3.61 | P 3.04 | D 2.16 | F 2.82 | E 2.55 | M 2.07 | G 3.93 | V 2.45 | A 3.51 | I 2.63 | N 1.77 | H 2.04 | K 2.1
E18: F 3.53 | G 3.65 | I 3.67 | S 1.73 | M 3.04 | Y 2.61 | K 3.37 | A 3.26 | P 2.37 | H 2.48 | R 2.19 | V 1.9 | C 2.58 | T 2.4 | N 2.32 | W 3.87 | L 1.74 | D 2.19 | Q 1.99
L10: K 1.62 | M 1.54 | P 3.39 | G 1.89 | Q 1.65 | Y 1.68 | V 2.57 | W 1.96 | T 2.35 | F 2.03 | H 1.98 | N 2.05

Variants of: B2
Experiment: as above
Conditions: c terminus: native

Protein stability index, by site and new letter:
K18: D 1.39
V4: F 2.89 | G 2.01 | C 2.3
S9: L 2.95 | I 1.49 | E 3.48 | R 2.53
R23: C 4.75 | A 5.57 | P 5.32
N12: Y 1.78 | S 1.86 | Q 2.03 | F 1.81 | L 3.05
E2: Q 1.79 | D 2.99
D19: I 2.29 | L 2.1
S11: R 2.78
T15: M 1.86 | W 2.05 | E 3.38 | F 2.36 | S 2.75
I6: S 2.74 | Y 2.65 | P 3.4 | F 2.41
D8: P 1.73 | T 2.32
K21: Q 4.95 | R 1.71 | T 4.87
R7: S 2.42 | E 2.99 | A 3.56
S22: M 4.06 | G 1.89 | L 3.48
T17: M 2.68
F10: N 3.64 | D 4 | T 3.68 | V 2.95 | R 4.5 | P 3.63
N14: L 2.09 | A 1.86 | H 2.46 | K 2.44
E16: H 3 | Y 1.31 | G 2.38 | M 1.51 | T 2.06
T20: C 1.93 | F 1.36 | I 2.7
V3: W 2.53 | N 3 | Q 2.47 | C 2.69 | D 3.54
K5: H 2.58 | S 2.77
